± gives the standard deviation of the averaged measurements.
Experiment: total protein half-life in vivo (active degradation + dilution); higher = more stable protein
[1] = E. coli NCM3722 delta-clpP delta-lon delta-hslV, growth: N-lim chemostat, doubling time 6 h
[2] = E. coli NCM3722 delta-clpP, growth: N-lim chemostat, doubling time 6 h
[3] = E. coli NCM3722 delta-hslV, growth: N-lim chemostat, doubling time 6 h
[4] = E. coli NCM3722 delta-lon, growth: N-lim chemostat, doubling time 6 h
[5] = E. coli NCM3722 delta-smpB, growth: N-lim chemostat, doubling time 6 h
[6] = wild type E. coli NCM3722, growth: C-lim chemostat, doubling time 3 h
[7] = wild type E. coli NCM3722, growth: C-lim chemostat, doubling time 6 h
[8] = wild type E. coli NCM3722, growth: C-lim chemostat, doubling time 12 h
[9] = wild type E. coli NCM3722, growth: N-lim chemostat, doubling time 6 h
[10] = wild type E. coli NCM3722, growth: N-lim chemostat, doubling time 12 h
[11] = wild type E. coli NCM3722, growth: P-lim chemostat, doubling time 6 h
[12] = wild type E. coli NCM3722, growth: P-lim chemostat, doubling time 12 h

| Sequence | total protein half-life in vivo [1] | total protein half-life in vivo [2] | total protein half-life in vivo [3] | total protein half-life in vivo [4] | total protein half-life in vivo [5] | total protein half-life in vivo [6] | total protein half-life in vivo [7] | total protein half-life in vivo [8] | total protein half-life in vivo [9] | total protein half-life in vivo [10] | total protein half-life in vivo [11] | total protein half-life in vivo [12] |
| --- | --- | --- | --- | --- | --- | --- | --- | --- | --- | --- | --- | --- |
| MAKLTLQEQLLKAGLVTSKKAAKVERTAKKSRVQAREARAAVEENKKAQLERDKQLSEQQKQAALAKEYKAQVKQLIEMNRITIANGDIGFNFTDGNLIKKIFVDKLTQAQLINGRLAIARLLVDNNSEGEYAIIPASVADKIAQRDASSIVLHSALSAEEQDEDDPYADFKVPDDLMW | 5.344 ± 0.0096 h | 4.88 ± 0.16 h | 2.22 ± 0.1 h | 2.88 h | 2.37 h | 2.24 ± 0.012 h | 3.23 ± 0.14 h | 4.09 ± 0.13 h | 1.95 ± 0.37 h | 2.45 ± 0.67 h | 2.17 ± 0.44 h | 4.41 ± 0.084 h |
| MPKIVILPHQDLCPDGAVLEANSGETILDAALRNGIEIEHACEKSCACTTCHCIVREGFDSLPESSEQEDDMLDKAWGLEPESRLSCQARVTDEDLVVEIPRYTINHAREH [P0A9R4] | 4.926 ± 0.026 h | 5.96 ± 1.3 h | 4.83 ± 0.91 h | 6.22 ± 1.6 h | 3.67 ± 0.56 h | 3.16 ± 0.84 h | – | 6.59 ± 0.084 h | 4.05 ± 0.7 h | 8.81 ± 2.2 h | 5.22 ± 0.39 h | 10.8 ± 0.6 h |
| MVAENQPGHIDQIKQTNAGAVYRLIDQLGPVSRIDLSRLAQLAPASITKIVREMLEAHLVQELEIKEAGNRGRPAVGLVVETEAWHYLSLRISRGEIFLALRDLSSKLVVEESQELALKDDLPLLDRIISHIDQFFIRHQKKLERLTSIAITLPGIIDTENGIVHRMPFYEDVKEMPLGEALEQHTGVPVYIQHDISAWTMAEALFGASRGARDVIQVVIDHNVGAGVITDGHLLHAGSSSLVEIGHTQVDPYGKRCYCGNHGCLETIASVDSILELAQLRLNQSMSSMLHGQPLTVDSLCQAALRGDLLAKDIITGVGAHVGRILAIMVNLFNPQKILIGSPLSKAADILFPVISDSIRQQALPAYSQHISVESTQFSNQGTMAGAALVKDAMYNGSLLIRLLQG | 5.81 ± 0.28 h | 6.92 ± 0.73 h | – | 6.12 ± 0.57 h | 6.02 ± 0.33 h | 2.89 ± 0.014 h | 5.92 ± 0.69 h | 9.65 ± 0.51 h | 5.85 ± 0.26 h | 12.8 ± 0.51 h | 6.19 ± 1 h | 12.4 ± 0.56 h |
| MATAWYKQVNPPQRKALFSAWLGYVFDGFDFMMIFYILHIIKADLGITDIQATLIGTVAFIARPIGGGFFGAMADKYGRKPMMMWAIFIYSVGTGLSGIATNLYMLAVCRFIVGLGMSGEYACASTYAVESWPKNLQSKASAFLVSGFSVGNIIAAQIIPQFAEVYGWRNSFFIGLLPVLLVLWIRKSAPESQEWIEDKYKDKSTFLSVFRKPHLSISMIVFLVCFCLFGANWPINGLLPSYLADNGVNTVVISTLMTIAGLGTLTGTIFFGFVGDKIGVKKAFVVGLITSFIFLCPLFFISVKNSSLIGLCLFGLMFTNLGIAGLVPKFIYDYFPTKLRGLGTGLIYNLGATGGMAAPVLATYISGYYGLGVSLFIVTVAFSALLILLVGFDIPGKIYKLSVAK | – | – | – | – | – | 3.16 h | > 8 h | 9.57 h | – | – | 5.55 h | 9.48 ± 2.4 h |
| MKHTVEVMIPEAEIKARIAELGRQITERYKDSGSDMVLVGLLRGSFMFMADLCREVQVSHEVDFMTASSYGSGMSTTRDVKILKDLDEDIRGKDVLIVEDIIDSGNTLSKVREILSLREPKSLAICTLLDKPSRREVNVPVEFIGFSIPDEFVVGYGIDYAQRYRHLPYIGKVILLDE [P0A9M2] | 4.48 ± 0.22 h | 4.53 ± 0.57 h | 4.14 ± 0.16 h | 5.16 ± 0.72 h | 4.08 ± 0.22 h | 2.88 ± 0.16 h | 4.78 ± 1.6 h | 9.38 ± 0.47 h | 4.126 ± 0.012 h | 7.29 ± 0.7 h | 5.5 ± 0.17 h | 12.9 ± 1.8 h |
| MSKNERMVGISRRTLVKSTAIGSLALAAGGFSLPFTLRNAAAAVQQAREKVVWGACSVNCGSRCALRLHVKDNEVTWVETDNTGSDEYGNHQVRACLRGRSIRRRINHPDRLNYPMKRVGKRGEGKFERISWDEALDTIASSLKKTVEQYGNEAVYIQYSSGIVGGNMTRSSPSASAVKRLMNCYGGSLNQYGSYSTAQISCAMPYTYGSNDGNSTTDIENSKLVVMFGNNPAETRMSGGGITYLLEKAREKSNAKMIVIDPRYTDTAAGREDEWLPIRPGTDAALVAGIAWVLINENLVDQPFLDKYCVGYDEKTLPADAPKNGHYKAYILGEGDDKTAKTPQWASQITGIPEDRIIKLAREIGTAKPAYICQGWGPQRQANGELTARAIAMLPILTGNVGISGGNSGARESTYTITIERLPVLDNPVKTSISCFSWTDAIDHGPQMTAIRDGVRGKDKLDVPIKFIWNYAGNTLVNQHSDINKTHEILQDESKCEMIVVIENFMTSSAKYADILLPDLMTVEQEDIIPNDYAGNMGYLIFLQPVTSEKFERKPIYWILSEVAKRLGPDVYQKFTEGRTQEQWLQHLYAKMLAKDPALPSYDELKKMGIYKRKDPNGHFVAYKAFRDDPEANPLKTPSGKIEIYSSRLAEIARTWELEKDEVISPLPVYASTFEGWNSPERRTFPLQLFGFHYKSRTHSTYGNIDLLKAACRQEVWINPIDAQKRGIANGDMVRVFNHRGEVRLPAKVTPRILPGVSAMGQGAWHEANMSGDKIDHGGCVNTLTTLRPSPLAKGNPQHTNLVEIEKI | 5.78 h | – | – | – | – | – | – | – | – | – | – | – |
| MSSKVEQLRAQLNERILVLDGGMGTMIQSYRLNEADFRGERFADWPCDLKGNNDLLVLSKPEVIAAIHNAYFEAGADIIETNTFNSTTIAMADYQMESLSAEINFAAAKLARACADEWTARTPEKPRYVAGVLGPTNRTASISPDVNDPAFRNITFDGLVAAYRESTKALVEGGADLILIETVFDTLNAKAAVFAVKTEFEALGVELPIMISGTITDASGRTLSGQTTEAFYNSLRHAEALTFGLNCALGPDELRQYVQELSRIAECYVTAHPNAGLPNAFGEYDLDADTMAKQIREWAQAGFLNIVGGCCGTTPQHIAAMSRAVEGLAPRKLPEIPVACRLSGLEPLNIGEDSLFVNVGERTNVTGSAKFKRLIKEEKYSEALDVARQQVENGAQIIDINMDEGMLDAEAAMVRFLNLIAGEPDIARVPIMIDSSKWDVIEKGLKCIQGKGIVNSISMKEGVDAFIHHAKLLRRYGAAVVVMAFDEQGQADTRARKIEICRRAYKILTEEVGFPPEDIIFDPNIFAVATGIEEHNNYAQDFIGACEDIKRELPHALISGGVSNVSFSFRGNDPVREAIHAVFLYYAIRNGMDMGIVNAGQLAIYDDLPAELRDAVEDVILNRRDDGTERLLELAEKYRGSKTDDTANAQQAEWRSWEVNKRLEYSLVKGITEFIEQDTEEARQQATRPIEVIEGPLMDGMNVVGDLFGEGKMFLPQVVKSARVMKQAVAYLEPFIEASKEQGKTNGKMVIATVKGDVHDIGKNIVGVVLQCNNYEIVDLGVMVPAEKILRTAKEVNADLIGLSGLITPSLDEMVNVAKEMERQGFTIPLLIGGATTSKAHTAVKIEQNYSGPTVYVQNASRTVGVVAALLSDTQRDDFVARTRKEYETVRIQHGRKKPRTPPVTLEAARDNDFAFDWQAYTPPVAHRLGVQEVEASIETLRNYIDWTPFFMTWSLAGKYPRILEDEVVGVEAQRLFKDANDMLDKLSAEKTLNPRGVVGLFPANRVGDDIEIYRDETRTHVINVSHHLRQQTEKTGFANYCLADFVAPKLSGKADYIGAFAVTGGLEEDALADAFEAQHDDYNKIMVKALADRLAEAFAEYLHERVRKVYWGYAPNENLSNEELIRENYQGIRPAPGYPACPEHTEKATIWELLEVEKHTGMKLTESFAMWPGASVSGWYFSHPDSKYYAVAQIQRDQVEDYARRKGMSVTEVERWLAPNLGYDAD | 5.12 ± 0.36 h | 4.3 ± 0.33 h | 3.71 ± 0.047 h | 3.96 ± 0.33 h | 3.31 ± 0.087 h | 2.73 ± 0.051 h | 5.05 ± 0.14 h | 8.09 ± 0.26 h | 3.489 ± 0.028 h | 5.48 ± 0.14 h | 5.43 ± 0.51 h | 9.81 ± 0.4 h |
| MGLFNFVKDAGEKLWDAVTGQHDKDDQAKKVQEHLNKTGIPDADKVNIQIADGKATVTGDGLSQEAKEKILVAVGNISGIASVDDQVKTATPATASQFYTVKSGDTLSAISKQVYGNANLYNKIFEANKPMLKSPDKIYPGQVLRIPEE [P0ADE6] | 6.19 ± 0.023 h | 5.8 ± 0.83 h | 5.979 ± 0.053 h | 6.34 ± 0.072 h | 5.3 ± 0.33 h | 3.18 ± 0.085 h | 5.55 ± 0.29 h | 9.85 ± 1.1 h | 4.67 ± 0.066 h | 9.41 ± 1.2 h | 5.21 ± 0.41 h | 11.7 ± 0.15 h |
| MLAISSNLSKMIIFIFAIIIIVVLCVITYLYLYKDESLVSKHYINYMAIPENDGVFTWLPDFFPHVAVDISIYTNVEDDYFFLIFP | 3.41 h | – | 5.43 h | – | – | – | – | – | – | – | – | – |
| MAEGKAMSEFLPFSRPAMGVEELAAVKEVLESGWITTGPKNQALEQAFCQLTGNQHAIAVSSATAGMHITLMALKIGKGDEVITPSLTWVSTLNMISLLGATPVMVDVDRDTLMVTPEAIESAITPRTKAIIPVHYAGAPADIDAIRAIGERYGIAVIEDAAHAVGTYYKGRHIGAKGTAIFSFHAIKNITCAEGGLIVTDNENLARQLRMLKFHGLGVDAYDRQTWGRAPQAEVLTPGYKYNLTDINAAIALTQLVKLEHLNTRRREIAQQYQQALAALPFQPLSLPAWPHVHAWHLFIIRVDEQRCGISRDALMEALKERGIGTGLHFRAAHTQKYYRERFPTLSLPNTEWNSERICSLPLFPDMTTADADHVITALQQLAGQ | 4.86 ± 0.74 h | 3.7 ± 0.29 h | 3.72 ± 0.19 h | 4.52 ± 0.06 h | 3.93 ± 0.41 h | 3.52 ± 0.55 h | 4.78 ± 0.6 h | 9.35 ± 0.95 h | 3.78 ± 0.055 h | 6.38 ± 0.47 h | 5.53 ± 0.55 h | 11.7 ± 0.21 h |

Reference: the supplement of paper PMC11246515
